± gives the uncertainty stated by the source.
B1: WW domain-containing transcription regulator protein 1, residues 116 to 162; numbered along this chain, Q9GZV5 (parent)
chain: QSYDVTDELPLPPGWEMTFTATGQRYFLNHIEKITTWQDPRKAMNQP

Variants of: B1
Experiment: abundance fitness (aPCA) (normalised: wild type 0, dead -1); higher = more abundant; growth selection in yeast, the domain comes from the species named
Settings: Homo sapiens

Variant | abundance fitness
T20W | -1 ± 0.052
T20Y | -0.796 ± 0.038
N29V | -1.09 ± 0.036
N29L | -1.01 ± 0.035
N29E | -0.931 ± 0.063
N29A | -0.919 ± 0.041
N29Q | -0.779 ± 0.061
N29I | -0.949 ± 0.031
N29K | -0.826 ± 0.052
N29P | -1.11 ± 0.13
N29M | -1.02 ± 0.046
N29D | -0.42 ± 0.066
N29S | -0.357 ± 0.035
N29F | -1.01 ± 0.082
N29R | -0.763 ± 0.048
N29C | -1.04 ± 0.13
N29W | -0.965 ± 0.093
N29H | -0.278 ± 0.071
N29T | -0.847 ± 0.051
Q24H | -0.552 ± 0.1
Q24N | -0.164 ± 0.026

Variant | abundance fitness
Q24S | -0.174 ± 0.025
Q24K | -0.14 ± 0.052
Q24L | -0.364 ± 0.041
Q24Y | -0.424 ± 0.065
Q24F | -0.623 ± 0.037
Q24W | -0.82 ± 0.045
Q24P | -0.846 ± 0.075
Q24D | 0.017 ± 0.055
Q24R | -0.222 ± 0.04
Q24E | 0.185 ± 0.052
Q24G | -0.286 ± 0.041
Q24A | -0.124 ± 0.045
Q24C | -0.305 ± 0.056
Q24T | -0.178 ± 0.04
Q24M | -0.489 ± 0.06
Q24V | -0.12 ± 0.036
Q24I | -0.226 ± 0.11
R25S | -0.203 ± 0.04
R25G | -0.37 ± 0.03
R25E | -0.26 ± 0.04
R25H | -0.385 ± 0.069

Variant | abundance fitness
R25W | -0.64 ± 0.031
R25K | -0.016 ± 0.044
R25T | -0.295 ± 0.051
R25F | -0.451 ± 0.073
R25D | -0.934 ± 0.13
R25Y | -0.246 ± 0.065
R25A | -0.261 ± 0.05
R25Q | -0.116 ± 0.033
R25I | -0.024 ± 0.057
R25N | -0.448 ± 0.074
R25M | -0.232 ± 0.054
F27T | -0.793 ± 0.067
F27N | -0.859 ± 0.096
F27R | -0.761 ± 0.033
F27G | -0.613 ± 0.048
F27M | -0.904 ± 0.035
F27L | -0.841 ± 0.046
F27I | -0.935 ± 0.066
F27A | -0.777 ± 0.034
F27K | -0.818 ± 0.2
F27W | -0.13 ± 0.049

Variant | abundance fitness
F27H | -0.707 ± 0.2
F27Q | -0.977 ± 0.14
F27S | -0.579 ± 0.057
F27C | -0.825 ± 0.05
F27P | -0.946 ± 0.13
F27Y | -0.027 ± 0.03
G23M | -0.875 ± 0.079
G23K | -0.412 ± 0.061
G23R | -0.369 ± 0.029
G23T | -0.918 ± 0.073
G23V | -0.925 ± 0.042
G23L | -1.07 ± 0.098
G23P | -0.827 ± 0.047
G23I | -0.917 ± 0.12
G23F | -1.15 ± 0.23
G23W | -0.964 ± 0.054
G23D | -0.361 ± 0.048
G23C | -0.79 ± 0.031
G23S | -0.565 ± 0.032
G23Q | -0.469 ± 0.059
G23H | -0.476 ± 0.064

Source: the Human Domainome abundance scans (Beltran et al. 2025)
